Assay results as given in CN112390879A (UNIV SHANGHAI TECHNOLOGY, dated 2021).

What was measured:
SARS-CoV-2 S蛋白 (野生型) = SARS-CoV-2 S蛋白 (野生型) (SARS-CoV-2, UniProt P0DTC2 14-1273); assay: cell-based or functional assay
SARS-CoV-2 S蛋白的RBD蛋白 [1] = target: T1, SARS-CoV-2 S蛋白的RBD蛋白 (SARS-CoV-2, UniProt P0DTC2 319-541); assay: SPR, Biacore T200, RBD immobilised on CM5 chip, antibody in solution, 1:1 model
T1 construct: domain: RBD

生物素化RBD = 生物素化RBD (SARS-CoV-2, UniProt P0DTC2 319-541)
SARS-CoV-2 S蛋白的RBD蛋白 [2] = target: T1, SARS-CoV-2 S蛋白的RBD蛋白; assay: ELISA, RBD coated at 2 μg/mL, 1F as human IgG1

B1: 抗体1F (antibody, V domains shown)
VH: EVQLVESGPGLVKPSETLSLTCTVSGGSISSSSYYWGWIRQPPGKGLEWIGSIYYRGSTYYNPSLKSRVTISVDTSKNQFSLKLSSVTAADTAVYYCARHVRSAYYYGSGSYRDEGNWFDPWGQGTLVTVSS
VL: QSVLTQPPSVSGAPGQRVTISCTGTRSNIGAGHDVHWYQQLPGTAPKLLIYGNNNRPSGVPDRFSGAKSGTSASLAITGLQAEDEADYYCQSYDRTLTSYVFGTGTKVTVL
Q: What does the source list for B1?
A: 中和SARS-CoV-2活病毒 (Vero-E6细胞, RT-PCR) IC50 (SARS-CoV-2 S蛋白 (野生型)): 0.018 µg/mL; 中和野生型SARS-CoV-2假病毒 (293T-ACE2细胞, 荧光素酶) IC50 (SARS-CoV-2 S蛋白 (野生型)): 0.0464 µg/mL; Kd (SARS-CoV-2 S蛋白的RBD蛋白 [1]): 77 pM; IC50 (生物素化RBD): 0.213 µg/mL; EC50 (SARS-CoV-2 S蛋白的RBD蛋白 [2]): 0.0016 µg/mL
